Source: US20070253966A1

Target: human GLP-1 receptor (human) (UniProt P43220)
Experiment: cell-based or functional assay

Sequence of UniProt P43220 (P43220 24-463): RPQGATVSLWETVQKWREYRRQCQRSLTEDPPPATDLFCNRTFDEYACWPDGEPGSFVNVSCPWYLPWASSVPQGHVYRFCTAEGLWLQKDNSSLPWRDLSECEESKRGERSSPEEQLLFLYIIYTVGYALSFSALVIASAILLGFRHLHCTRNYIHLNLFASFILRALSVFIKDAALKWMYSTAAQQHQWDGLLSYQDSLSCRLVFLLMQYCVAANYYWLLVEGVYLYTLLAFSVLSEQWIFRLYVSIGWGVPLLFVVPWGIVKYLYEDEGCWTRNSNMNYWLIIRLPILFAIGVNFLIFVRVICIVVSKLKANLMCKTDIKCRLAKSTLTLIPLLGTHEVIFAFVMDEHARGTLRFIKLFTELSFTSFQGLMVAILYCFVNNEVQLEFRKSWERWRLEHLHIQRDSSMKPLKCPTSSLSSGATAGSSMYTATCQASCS

Activity (EC50 relative to Val^8-GLP-1(7-37)OH), CRE-BLAM beta-lactamase reporter in HEK-293 cells expressing human GLP-1 receptor [%]	Activity (EC50 relative to Val^8-GLP-1(7-37)OH), CRE-Luciferase reporter in HEK-293 cells stably expressing human GLP-1 receptor [%]	Activity (EC50 relative to Val^8-GLP-1(7-37)OH, corrected for 2-fold molarity of the dimer), CRE-Luciferase reporter in HEK-293 cells stably expressing human GLP-1 receptor [%]	Substance
100	100		Val^8-GLP-1(7-37)OH (from UniProt P01275 21-180) (peptide)
301		535	Gly^8-Glu^22-GLP-1(7-37)-2L-IgG4 (S228P, F234A, L235A) (from UniProt P01275 98-128) (Fc fusion)
468		1120	Gly^8-Glu^22-GLP-1(7-37)-1L-IgG4 (S228P, F234A, L235A) (from UniProt P01275 98-128) (Fc fusion)
314		595	Gly^8-Glu^22-GLP-1(7-37)-1.5L-IgG4 (S228P, F234A, L235A) (from UniProt P01275 98-128) (Fc fusion)
